The values below come from US20250215052A1 (UNIVERSITY OF COPENHAGEN, published 2025).

As a reminder, the Ki is a dissociation constant, usually derived from enzyme kinetics or from competition with a known ligand.

For this experiment, the target named is T1, Protein Interacting with C Kinase-1 (PICK1), purified recombinant (UniProt Q9EP80 1-416).
T1 construct: also called purified PICK1
Put plainly: fluorescence polarization competition, tracer 5-FAM-TAT-C5, purified PICK1.

Where no end group is shown, it is not given here.

T1 sequence (Q9EP80 whole entry): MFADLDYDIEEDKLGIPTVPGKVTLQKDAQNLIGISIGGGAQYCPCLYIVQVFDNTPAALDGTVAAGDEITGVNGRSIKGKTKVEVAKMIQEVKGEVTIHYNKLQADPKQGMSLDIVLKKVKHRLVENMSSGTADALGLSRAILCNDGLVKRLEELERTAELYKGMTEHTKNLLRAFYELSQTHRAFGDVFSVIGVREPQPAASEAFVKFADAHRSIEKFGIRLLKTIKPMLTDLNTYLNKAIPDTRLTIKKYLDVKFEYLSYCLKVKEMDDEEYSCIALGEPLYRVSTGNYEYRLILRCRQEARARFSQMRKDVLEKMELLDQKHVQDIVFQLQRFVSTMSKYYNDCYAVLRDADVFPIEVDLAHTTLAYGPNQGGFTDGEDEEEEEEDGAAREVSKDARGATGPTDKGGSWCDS

B1: MAP-P4-(C5)2 (peptide)
peptide 1: HWLKV
peptide 2: KLALKLALKALKAALKLA
modifications: not fully specified (N-terminus); also: dimer: two HWLKV copies joined at N-termini by NPEG4 linker, MAP peptide conjugated to the NPEG4 linker
notes: also called MAP-peptide
For B1, the “Fold affinity change (vs TAT-P4-(C5)2)” value came to 0.8 fold and the Ki was 5.1 nM.
